The supplement of paper PMC10065799, “High-throughput profiling of sequence recognition by tyrosine kinases and SH2 domains using bacterial peptide display” (eLife, 2023)

Tests used:
Grb2 SH2 = Grb2 SH2 (UniProt P62993); assay: SH2 binding enrichment of the phosphorylated peptide, bacterial display (enrichment ratio); higher = better substrate or ligand; peptides without Tyr show the background
c-Src SH2 = assay: as above
SHP2-C SH2 = assay: as above
Fyn = Fyn (UniProt P06241); assay: phosphorylation enrichment, bacterial display (enrichment ratio); higher = better substrate or ligand; peptides without Tyr show the background
c-Src = assay: as above
Fer (mouse) = assay: as above
EPHB2 = EPHB2 (UniProt P29323); assay: as above
FGFR1 = FGFR1 (UniProt P11362); assay: as above
FGFR3 = FGFR3 (UniProt P22607); assay: as above
EPHB1 = EPHB1 (UniProt P54762); assay: as above
Jak2 = Jak2 (UniProt O60674); assay: as above
c-Abl (mouse) = assay: as above
AncSZ = assay: as above
Fes = Fes (UniProt P07332); assay: as above
Hck = Hck (UniProt P08631); assay: as above
MERTK = MERTK (UniProt Q12866); assay: as above
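For SH2 binding enrichment of the phosphorylated peptide, bacterial display in this document: peptide library displayed on the E. coli surface as eCPX fusions, selected cells deep-sequenced, score is each peptide's frequency after selection divided by its frequency in the input.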
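For phosphorylation enrichment, bacterial display in this document: 11-residue human phosphosite peptides and single-mutation variants displayed on the E. coli surface, counted by deep sequencing, each peptide's frequency after selection divided by its frequency in the unselected input library; frequency after pTyr selection over input frequency; kinase dosed for 20-30% of maximal phosphorylation in three min.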

Sequence of MERTK (Q12866 whole entry, looked up, the tested form may be a part): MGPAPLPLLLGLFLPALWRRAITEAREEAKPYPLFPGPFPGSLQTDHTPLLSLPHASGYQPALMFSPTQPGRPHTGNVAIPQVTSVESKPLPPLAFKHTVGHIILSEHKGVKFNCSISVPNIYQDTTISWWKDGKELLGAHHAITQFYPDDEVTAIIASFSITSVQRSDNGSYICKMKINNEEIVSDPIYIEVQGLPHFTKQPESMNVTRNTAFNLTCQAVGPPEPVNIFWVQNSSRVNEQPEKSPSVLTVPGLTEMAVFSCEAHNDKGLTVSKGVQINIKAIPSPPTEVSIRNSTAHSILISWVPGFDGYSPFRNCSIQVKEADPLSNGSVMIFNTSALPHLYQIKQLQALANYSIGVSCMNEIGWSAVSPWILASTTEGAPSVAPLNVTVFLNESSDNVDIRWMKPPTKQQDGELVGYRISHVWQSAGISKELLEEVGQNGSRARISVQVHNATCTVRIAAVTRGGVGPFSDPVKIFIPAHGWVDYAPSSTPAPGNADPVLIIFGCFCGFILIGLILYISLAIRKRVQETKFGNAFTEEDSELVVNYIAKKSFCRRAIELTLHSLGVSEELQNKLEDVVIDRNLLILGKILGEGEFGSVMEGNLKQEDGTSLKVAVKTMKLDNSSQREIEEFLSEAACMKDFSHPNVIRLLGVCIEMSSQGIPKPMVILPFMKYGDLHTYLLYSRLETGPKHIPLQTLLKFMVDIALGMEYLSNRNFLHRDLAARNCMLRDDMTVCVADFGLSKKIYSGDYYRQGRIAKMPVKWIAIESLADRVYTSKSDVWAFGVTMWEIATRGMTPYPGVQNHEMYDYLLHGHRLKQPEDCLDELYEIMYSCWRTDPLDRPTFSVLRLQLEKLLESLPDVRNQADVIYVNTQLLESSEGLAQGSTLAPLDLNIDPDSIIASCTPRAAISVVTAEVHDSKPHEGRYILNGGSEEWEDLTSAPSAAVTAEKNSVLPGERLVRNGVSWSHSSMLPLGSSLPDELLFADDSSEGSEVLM
Sequence of Jak2 (O60674 whole entry, looked up): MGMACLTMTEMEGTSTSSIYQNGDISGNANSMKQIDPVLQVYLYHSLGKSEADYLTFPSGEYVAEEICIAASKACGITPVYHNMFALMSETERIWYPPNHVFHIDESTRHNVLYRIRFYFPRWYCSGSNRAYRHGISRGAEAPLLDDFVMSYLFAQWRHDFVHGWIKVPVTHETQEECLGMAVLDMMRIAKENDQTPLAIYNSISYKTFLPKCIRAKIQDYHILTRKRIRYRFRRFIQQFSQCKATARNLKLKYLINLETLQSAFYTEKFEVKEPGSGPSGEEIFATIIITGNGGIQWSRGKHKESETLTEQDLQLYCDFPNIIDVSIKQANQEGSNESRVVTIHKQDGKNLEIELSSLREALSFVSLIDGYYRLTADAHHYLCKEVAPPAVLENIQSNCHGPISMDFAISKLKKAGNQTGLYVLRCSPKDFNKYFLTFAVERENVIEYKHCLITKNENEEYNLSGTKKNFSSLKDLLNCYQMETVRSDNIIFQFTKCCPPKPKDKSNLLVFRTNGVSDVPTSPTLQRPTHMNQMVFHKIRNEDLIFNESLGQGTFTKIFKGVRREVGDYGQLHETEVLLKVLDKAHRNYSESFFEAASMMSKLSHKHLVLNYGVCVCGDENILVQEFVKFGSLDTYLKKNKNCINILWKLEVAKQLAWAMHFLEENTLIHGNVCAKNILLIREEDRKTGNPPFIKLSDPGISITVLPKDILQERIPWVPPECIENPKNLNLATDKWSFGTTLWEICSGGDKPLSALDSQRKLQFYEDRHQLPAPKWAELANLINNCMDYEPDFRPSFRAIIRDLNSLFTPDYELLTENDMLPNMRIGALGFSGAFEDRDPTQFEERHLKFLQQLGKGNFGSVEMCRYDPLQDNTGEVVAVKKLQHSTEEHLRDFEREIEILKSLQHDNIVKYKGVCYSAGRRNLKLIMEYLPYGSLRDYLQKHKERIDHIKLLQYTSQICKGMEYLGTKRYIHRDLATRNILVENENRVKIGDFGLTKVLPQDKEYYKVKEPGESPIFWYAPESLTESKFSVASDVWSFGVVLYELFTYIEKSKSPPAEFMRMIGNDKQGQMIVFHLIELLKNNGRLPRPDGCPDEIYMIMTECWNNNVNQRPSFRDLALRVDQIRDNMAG
Sequence of Hck (P08631 whole entry, looked up): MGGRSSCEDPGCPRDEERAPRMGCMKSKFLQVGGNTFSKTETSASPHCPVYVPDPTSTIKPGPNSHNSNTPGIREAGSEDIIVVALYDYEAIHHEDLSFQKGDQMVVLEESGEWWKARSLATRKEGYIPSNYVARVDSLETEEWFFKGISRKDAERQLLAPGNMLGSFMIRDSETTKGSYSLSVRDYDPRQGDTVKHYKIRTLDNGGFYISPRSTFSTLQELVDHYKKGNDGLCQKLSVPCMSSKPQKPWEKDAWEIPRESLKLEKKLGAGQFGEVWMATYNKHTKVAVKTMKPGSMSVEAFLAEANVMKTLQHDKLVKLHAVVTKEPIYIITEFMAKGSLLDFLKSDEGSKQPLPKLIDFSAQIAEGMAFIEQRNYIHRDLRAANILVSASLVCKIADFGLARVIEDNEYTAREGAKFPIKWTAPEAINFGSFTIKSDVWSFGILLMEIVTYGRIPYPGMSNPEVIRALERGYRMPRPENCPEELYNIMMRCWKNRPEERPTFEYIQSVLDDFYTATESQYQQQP
Sequence of FGFR3 (P22607 whole entry, looked up): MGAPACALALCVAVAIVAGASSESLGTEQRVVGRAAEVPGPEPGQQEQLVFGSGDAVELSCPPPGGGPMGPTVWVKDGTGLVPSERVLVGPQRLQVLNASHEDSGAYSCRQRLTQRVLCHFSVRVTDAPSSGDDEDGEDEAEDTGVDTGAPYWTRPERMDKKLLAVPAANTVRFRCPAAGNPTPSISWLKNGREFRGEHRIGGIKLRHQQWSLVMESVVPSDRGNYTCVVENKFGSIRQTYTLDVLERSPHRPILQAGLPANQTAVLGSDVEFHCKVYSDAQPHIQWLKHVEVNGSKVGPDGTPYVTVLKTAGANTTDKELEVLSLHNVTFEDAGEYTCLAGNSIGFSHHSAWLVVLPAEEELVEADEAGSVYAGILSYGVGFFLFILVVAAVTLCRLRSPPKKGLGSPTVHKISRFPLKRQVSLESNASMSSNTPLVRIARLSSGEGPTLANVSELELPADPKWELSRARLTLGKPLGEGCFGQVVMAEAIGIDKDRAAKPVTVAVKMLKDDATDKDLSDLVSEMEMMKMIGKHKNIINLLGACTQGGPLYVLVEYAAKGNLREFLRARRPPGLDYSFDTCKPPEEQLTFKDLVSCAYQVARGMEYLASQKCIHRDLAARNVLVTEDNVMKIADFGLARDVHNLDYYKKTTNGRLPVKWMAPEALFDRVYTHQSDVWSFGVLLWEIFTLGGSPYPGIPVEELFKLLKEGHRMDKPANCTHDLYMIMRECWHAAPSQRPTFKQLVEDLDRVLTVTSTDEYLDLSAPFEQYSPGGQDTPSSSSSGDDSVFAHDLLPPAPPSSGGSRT
Sequence of FGFR1 (P11362 whole entry, looked up): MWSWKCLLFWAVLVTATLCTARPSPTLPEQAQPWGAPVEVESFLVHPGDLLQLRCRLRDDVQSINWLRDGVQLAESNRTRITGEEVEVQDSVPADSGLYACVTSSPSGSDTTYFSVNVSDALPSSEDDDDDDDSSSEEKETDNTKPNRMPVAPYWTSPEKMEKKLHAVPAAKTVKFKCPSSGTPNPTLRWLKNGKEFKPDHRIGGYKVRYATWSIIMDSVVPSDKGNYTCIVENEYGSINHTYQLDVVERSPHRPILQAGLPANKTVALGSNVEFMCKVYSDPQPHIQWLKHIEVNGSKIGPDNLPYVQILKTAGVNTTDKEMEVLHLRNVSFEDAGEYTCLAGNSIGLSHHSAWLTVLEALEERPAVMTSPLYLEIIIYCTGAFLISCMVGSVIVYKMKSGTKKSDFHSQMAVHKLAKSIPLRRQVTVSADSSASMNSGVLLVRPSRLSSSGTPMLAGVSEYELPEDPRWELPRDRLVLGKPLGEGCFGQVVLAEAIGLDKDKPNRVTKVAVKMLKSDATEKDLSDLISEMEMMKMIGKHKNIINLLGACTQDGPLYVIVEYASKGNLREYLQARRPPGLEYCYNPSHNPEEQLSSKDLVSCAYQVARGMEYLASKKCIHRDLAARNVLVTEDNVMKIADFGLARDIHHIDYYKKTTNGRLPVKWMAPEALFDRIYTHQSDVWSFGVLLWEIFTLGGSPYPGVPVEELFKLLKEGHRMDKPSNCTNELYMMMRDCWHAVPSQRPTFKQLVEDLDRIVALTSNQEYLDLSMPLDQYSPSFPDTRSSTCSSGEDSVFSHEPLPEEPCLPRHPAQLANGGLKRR
Sequence of Fyn (P06241 whole entry, looked up): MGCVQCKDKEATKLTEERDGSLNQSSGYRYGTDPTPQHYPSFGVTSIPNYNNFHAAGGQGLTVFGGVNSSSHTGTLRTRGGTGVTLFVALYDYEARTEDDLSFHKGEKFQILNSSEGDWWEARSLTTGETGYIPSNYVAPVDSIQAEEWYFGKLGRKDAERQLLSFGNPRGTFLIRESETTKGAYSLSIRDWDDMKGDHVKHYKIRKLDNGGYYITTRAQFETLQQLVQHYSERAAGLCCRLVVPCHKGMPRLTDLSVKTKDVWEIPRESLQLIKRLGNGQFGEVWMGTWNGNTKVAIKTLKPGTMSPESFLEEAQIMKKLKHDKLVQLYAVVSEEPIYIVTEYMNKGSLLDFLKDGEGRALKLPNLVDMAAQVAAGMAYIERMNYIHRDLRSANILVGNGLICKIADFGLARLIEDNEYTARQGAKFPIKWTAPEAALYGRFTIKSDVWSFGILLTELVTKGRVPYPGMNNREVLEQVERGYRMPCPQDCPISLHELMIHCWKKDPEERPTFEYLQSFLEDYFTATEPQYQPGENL

Sequence	SH2 binding enrichment (Grb2 SH2)	SH2 binding enrichment (c-Src SH2)	SH2 binding enrichment (SHP2-C SH2)	phosphorylation enrichment (Fyn)	phosphorylation enrichment (c-Src)	phosphorylation enrichment (Fer (mouse))	phosphorylation enrichment (EPHB2)	phosphorylation enrichment (FGFR1)	phosphorylation enrichment (FGFR3)	phosphorylation enrichment (EPHB1)	phosphorylation enrichment (Jak2)	phosphorylation enrichment (c-Abl (mouse))	phosphorylation enrichment (AncSZ)	phosphorylation enrichment (Fes)	phosphorylation enrichment (Hck)	phosphorylation enrichment (MERTK)
MSLDQYSPSFP [FGFR1_Y776_P772S]	0.825	0.45	0.646	0.551	0.454	0.429	0.465	0.468	0.549	0.374	0.929	0.598	0.68	0.782	0.481	0.44
MSPPGYKLVNG [GJA1_Y286_T290N]	0.837	0.439	0.609	0.412	0.461	0.315	0.38	0.58	0.438	0.403	0.564	0.52	0.429	0.561	0.448	0.412
NALAQYQEMEK [BBS4_Y395]	0.795	3.07	0.808	0.545	0.366	0.454	0.471	0.594	0.658	0.466	0.714	0.512	1.1	0.967	0.612	0.467
NDQANYSLNTD [ADA_Y290]	0.764	0.554	0.696	0.585	0.535	0.498	0.68	0.566	0.749	0.623	0.981	0.814	0.966	0.982	0.465	0.561
NGRQCYSCRGN [PLAUR_Y217_K220R]	1.03	1.31	0.769	0.299	0.294	0.274	0.319	0.356	0.31	0.261	0.39	0.374	0.375	0.461	0.35	0.346
NHQFDYTFHWT [CSNK1A1_Y294_D297H_YF]	1.09	0.523	1.05	0.507	0.996	5.97	1.3	3.83	2.26	1.55	1.09	0.803	1.49	1.08	0.47	0.573
NHYKRYNLCAE [PTEN_Y68_I67R]	0.93	0.662	0.769	0.512	0.508	0.488	0.516	0.557	0.554	0.467	0.744	0.709	0.74	0.82	0.542	0.446
NPQKSCFIRLF [WAS_Y83_Y83C_YF]	0.862	0.631	0.817	0.459	0.453	0.47	0.578	0.583	0.704	0.606	0.974	0.848	1.06	1.18	0.526	0.467
NTDETYCIDNK [TUBB3_Y200_E205K]	0.96	0.572	0.955	0.781	0.976	0.729	0.577	0.53	0.783	0.721	1.37	0.834	1.23	1.34	0.592	0.407
NTGDFYDLFGG [PTPN11_Y63_YF]	1.14	0.615	0.628	4.89	4.45	1.82	0.632	0.582	0.709	0.587	0.985	0.773	1.23	1.06	3.44	2.97
NTGNFYDLFGG [PTPN11_Y63_D61N_YF]	1.19	0.887	0.833	6.58	4.88	3.08	0.548	0.537	0.641	0.436	0.796	0.766	0.844	0.955	4.7	7.84
NTPNTYLRVNV [ADD2_Y440]	0.927	0.485	1.29	0.433	0.436	0.38	0.47	0.44	0.598	0.412	0.908	0.587	0.891	0.98	0.428	0.347
NTSKMYIPHTD [EXPH5_Y782_D777N]	0.897	0.386	0.68	0.45	0.474	0.469	0.423	0.415	0.523	0.35	0.562	0.532	0.663	0.609	0.462	0.462
NTTIHYNFMCN [TP53_Y234_C229N_YF]	0.848	0.598	0.701	0.495	0.46	0.557	0.618	0.542	0.828	0.698	1.02	0.782	1.14	1.24	0.511	0.427
NVDGKYSFLKV [GRM3_Y478_G475D_YF]	1.06	0.826	0.944	0.383	0.439	0.48	0.356	0.426	0.505	0.394	0.719	0.534	0.624	0.824	0.431	0.508
PAEPRYRARQR [KCNJ11_Y26]	0.675	0.474	0.788	0.746	0.958	0.673	0.722	0.576	0.599	0.635	1	0.737	1.02	0.718	0.878	0.929
PDMHSYMVRYN [GRIN2D_Y732]	0.858	0.613	0.97	0.64	0.782	0.674	0.787	0.767	1.04	0.637	1.07	1.02	0.955	1.09	0.706	0.616

Further lines, with some results ahead:

SH2 binding enrichment (Grb2 SH2)	SH2 binding enrichment (c-Src SH2)	SH2 binding enrichment (SHP2-C SH2)	Sequence	phosphorylation enrichment (Fyn)	phosphorylation enrichment (c-Src)	phosphorylation enrichment (Fer (mouse))	phosphorylation enrichment (EPHB2)	phosphorylation enrichment (FGFR1)	phosphorylation enrichment (FGFR3)	phosphorylation enrichment (EPHB1)	phosphorylation enrichment (Jak2)	phosphorylation enrichment (c-Abl (mouse))	phosphorylation enrichment (AncSZ)	phosphorylation enrichment (Fes)	phosphorylation enrichment (Hck)	phosphorylation enrichment (MERTK)
0.799	0.64	0.692	MSSHHYDYKKY [ZNF445_Y428]	0.415	0.383	0.408	0.375	0.338	0.46	0.394	0.441	0.438	0.503	0.513	0.421	0.339
0.864	0.735	0.812	MVIPNYSSWTE [UROC1_Y185_R188W]	0.689	0.719	1.78	13.5	1.11	1.07	11.1	1.16	0.999	1.31	1.23	0.862	3.74
1.59	1.15	2.07	NFDRIYIFHLR [MYOF_Y1137_V1136I_YF]	0.605	0.724	0.606	0.705	0.594	0.791	0.732	1.46	0.993	1.53	1.42	0.507	0.524
0.804	0.552	0.743	NGPDVYVLPLT [AATK_Y93]	2.32	1.04	0.414	0.511	0.685	0.613	0.626	0.8	0.645	1.33	0.792	0.671	1.69
0.873	3.88	46.5	NGTVSYAIVAG [CDH23_Y1672_T1671S]	0.638	0.456	0.448	0.575	0.496	0.593	0.661	0.703	0.591	0.778	0.961	0.479	0.792
1.12	0.97	0.956	NHYKICNLCAE [PTEN_Y68_Y68C]	0.4	0.372	0.384	0.395	0.488	0.519	0.376	0.613	0.571	0.663	0.691	0.378	0.45
0.599	0.368	0.426	NIRKKYYRAIL [CHD7_Y1217_Q1214R]	0.443	0.442	0.388	0.311	0.501	0.341	0.455	0.494	0.462	0.569	0.547	0.395	0.507
1.62	1.41	1.48	NKKHHYRELPV [ERN2_Y860]	0.669	0.996	1.22	0.773	0.826	2.45	0.855	2.67	2.31	1.04	1.97	1.01	0.795
0.805	0.337	0.607	NNFGNYNNQSS [HNRNPA1_Y318_D314N]	0.382	0.32	0.379	0.393	0.381	0.708	0.366	0.432	0.626	0.564	0.632	0.354	0.326
0.919	0.504	0.924	NPQKPYFIRLF [WAS_Y83_S82P_YF]	0.438	0.373	0.457	0.579	0.511	0.637	0.633	0.878	0.423	1.17	1	0.479	0.423
0.928	0.553	0.632	NQLNDYIFSFD [RARS1_Y516_R512Q]	0.743	0.598	0.461	0.549	0.946	0.807	0.525	1.08	0.733	1.42	1.27	0.546	0.46
1.19	1.16	0.83	NRLTDYYELLL [BBS10_Y536_P539L]	1.1	1.69	1.98	1.66	11.9	10.1	2.44	1.68	1.15	1.64	1.17	1.46	3.04
0.704	0.632	0.693	NTEGGYCCICA [CRELD1_Y328_R329C]	0.512	0.529	0.583	0.657	0.562	0.668	0.497	0.878	0.894	1.02	0.966	0.911	0.673
0.762	0.435	0.628	NVPILYTASQA [CTNNA1_Y222]	0.421	0.418	0.472	0.449	0.464	0.501	0.432	0.688	0.576	0.553	0.597	0.444	0.687
1.11	1.42	0.822	PDDPNYSLVDD [PSTPIP2_Y323]	1.15	0.603	1.07	1.49	1.06	1.31	1.09	1.4	0.8	2.13	1.81	1.11	0.662
0.561	0.655	0.704	PEADKYHLTYA [FGG_Y300_R301H]	0.608	0.915	0.282	0.592	0.665	0.771	0.51	0.908	1.15	0.685	0.985	0.701	0.742
